From patent publication US20240117073A1, “METHODS OF TREATING NEOPLASTIC ASTROCYTOMA” (Ludwig Institute for Cancer Research Ltd., priority 2009, published 2024)
Entries after “also recorded” stand apart in the source; their conditions may differ.

Experiments:
[1] = molecular target: T1, EGFR extracted from DU145 cells (Homo sapiens, UniProt P00533); assay: immunoprecipitation and immunoblot; format: binding
T1 construct: endogenous in cells; host or cells: DU145
Experimental: Cells were lysed with lysis buffer (1% Triton X-IOO, 30 mM HEPES, 150 mM NaCl, […] 4-(2-aminoethyl) benzenesulfonylfluoride, 150 nM aprotinin, 1 mM E-64 protease inhibitor, 0.5 mM EDTA, and 1 mM leupeptin, pH 7.4) for 20 minutes, clarified by centrifugation at 14,000×g for 30 minutes, immunoprecipitated with the relevant antibodies at a final concentration of 5 μg/ml for 60 minutes and captured by Sepharose-A beads overnight. Samples were then eluted with 2× NuPAGE® SDS Sample Buffer (Invitrogen), resolved on NuPAGE® gels (either 3-8% or 4-12%), electro-transferred onto Immobilon®-P transfer membrane (Millipore) then probed with the relevant antibodies before detection by chemoluminescence radiography.
Clearly, mAb806 and mAb175 can recognize only a small proportion of the EGFR on cells in the presence of an autocrine stimulation loop.

[2] = tested on: U87MG.wtEGFR brain xenografts; assay: systemic treatment of intracranial xenografts; set-up: species or system nude mice; conditions: mouse, in vivo
Experimental: U87MG.ΔEGFR cells (1×10^5) or 5×10^5 LN-Z308.ΔEGFR, A1207.ΔEGFR, U87MG, U87MG.DK, and U87MG.wtEGFR cells in 5 μl of PBS were implanted into the right corpus stratum of nude mice brains as described previously (Mishima et al. (2000) A peptide derived from the non-receptor binding region of urokinase plasminogen activator inhibits glioblastoma growth and angiogenesis in vivo in combination with cisplatin. Proc. Natl. Acad. Sci. U.S.A. 97, 8484-8489).

[3] = tested on: glioblastomas not preselected for their EGFR status; assay: immunohistochemistry of 46 unselected glioblastomas; set-up: species or system human
Experimental: Immunohistochemical analysis was performed using 5 mm sections of fresh frozen tissue applied to histology slides and fixed for 10 minutes in cold acetone. Bound primary antibody was detected with biotinylated horse anti-mouse antibody followed by an avidin-biotin-complex reaction. Diaminobenzidine tetra hydrochloride (DAB) was used as chromogen. The extent of the immunohistochemical reactivity in tissues was estimated by light microscopy and graded according to the number of immunoreactive cells in 25% increments as follows: • Focal=less than 5% • +=5-25% • ++=25-50% • +++=50-75% • ++++=>75%

[4] = tested on: Ba/F3 cells expressing the wtEGFR; assay: EGF-induced proliferation (MTT assay); format: cell-based; conditions: antibody 10 μg/ml
Experimental: Cells growing in log phase were harvested and washed twice with PBS to remove residual IL-3. […] Proliferation was determined using the MTT assay (van de Loosdrecht et al. (1994) J. Immunol. Methods. 174, 311-320).

[5] = tested on: U87MG expressing wild-type EGFR; assay: protein A mixed hemadsorption; format: cell-based, human; conditions: undiluted supernatant less than 10%
Experimental: As expected, the 528 antibody stained both the U87MG.Δ2-7 and U87MG.wtEGFR cell lines (FIG. 1). As expected, the 528 antibody stained U87MG.Δ2-7 with a higher intensity than the parental cell as it binds both the de2-7 and wild-type receptors that are co-expressed in these cells (FIG. 1). Similar results were obtained using a protein A mixed hemadsorption which detects surface bound IgG by appearance of […] (group O) to target cells.

U87MG xenografts [6] = assay: preventative xenograft model; format: in vivo, nude mice; conditions: 1 mg per injection i.p., 3 times per week for 2 weeks
Experimental: (§1) Tumor cells (3×10^6) in […] of PBS were inoculated subcutaneously into both flanks of 4-6 week old female nude mice (Animal Research Centre, Western Australia, Australia). […] Treatment was continued for a total of 6 doses, 3 times per week for 2 weeks. In the established model, treatment was started when tumors had reached a mean volume of 65±6.42 mm^3 (U87MG.Δ2-7), 84±9.07 mm^3 (U87MG), 73±7.5 mm^3 (U87MG.wtEGFR) or 201±19.09 mm^3 (A431 tumors). Tumor volume in mm^3 was determined using the formula (length×width^2)/2, where length was the longest axis and width the measurement at right angles to the length (Clark et al. (2000) Therapeutic efficacy of anti-Lewis (y) humanized 3S 193 radioimmunotherapy in a breast cancer model: enhanced activity when combined with Taxol chemotherapy. Clin. Cancer Res. 6, 3621-3628). Data was expressed as mean tumor volume±S.E. for each treatment group. Statistical analysis was performed at given time points using Student's t-test. Animals were euthanized when the xenografts reached an approximate volume of 1.5 cm^3 and the tumors excised for histological examination. This research project was approved by the Animal Ethics Committee of the Austin and Repatriation Medical Centre.

[7] = molecular target: T2, Peptide C: LEEKKGNYVVTDH(K-Biot)-OH (Homo sapiens, UniProt P00533, DELINS30-297G); assay: BIAcore, immobilized Peptide C; format: binding; conditions: mAbL8A4 even at 6.25 nM; mAb806 up to 100 nM (highest tested)
T2 construct: purchased Biosource, Camarillo, CA; host or cells: synthetic
Experimental: Peptide C was immobilized on a Streptavidin microsensor chip at a surface density of 350RU (+/−30RU). Serial dilutions of mAbs were tested for reactivity with the peptide. Blocking experiments using non-biotinylated peptide were performed to assess specificity.

parental U87MG cells = assay: binding of iodinated antibody to cells; set-up: species or system human
U87MG xenografts [8] = assay: established xenograft model; format: in vivo, nude mice; conditions: 1 mg per injection
Experimental: as §1, with “Centre. […]” for “Centre.”

xenograft U87MG (native) = assay: immunohistochemistry of xenograft sections; set-up: species or system human
Experimental: (§2) Xenografts were excised and bisected. One half was fixed in 10% formalin/PBS before being embedded in paraffin. Four micron sections were then cut and stained with haematoxylin and eosin (H&E) for routine histological examination. The other half was embedded in Tissue Tek® OCT compound (Sakura Finetek, Torrance, CA), frozen in liquid nitrogen and stored at −80° C. Thin (5 micron) cryostat sections were cut and fixed in ice-cold acetone for 10 min followed by air drying for a further 10 min. Sections were blocked in protein blocking reagent (Lipshaw Immunon, Pittsburgh U.S.A.) for 10 min and then incubated with biotinylated primary antibody (1 mg/ml), for 30 min at room temperature (RT). All antibodies were biotinylated using the ECL™ protein biotinylation module (Amersham, Baulkham Hills, Australia), as per the manufacturer's instructions. After rinsing with PBS, sections were incubated with a streptavidin horseradish peroxidase complex for a further 30 min (Silenus, Melbourne, Australia). Following a final PBS wash the sections were exposed to 3-amino-9-ethylcarbozole (AEC) substrate (0.1 M acetic acid, 0.1 M sodium acetate, 0.02 M AEC (Sigma Chemical Co., St Louis, MO)) in the presence of hydrogen peroxide for 30 min. Sections were rinsed with water and counterstained with hematoxylin for 5 min and mounted.
(§3) Bound antibody was detected using the Dako Envision™+HRP detection system as per manufacturer's instructions. Sections were finally rinsed with water, counterstained with hematoxylin and mounted.

xenograft A431 = assay: immunohistochemistry of xenograft sections; set-up: species or system human
Experimental: as §2, §3

[9] = tested on: HN5 head and neck cell line; assay: FACS binding to cell lines; format: cell-based, human
U87MG cells = assay: FACS binding to cell lines; format: cell-based, human
Experimental: Briefly, cells were labelled with the relevant antibody (10 μg/ml) followed by fluorescein-conjugated goat anti-mouse IgG (1:100 dilution; Calbiochem San Diego, CA, USA; Becton-Dickinson PharMingen, San Diego, CA, US) as described previously (Nishikawa et al., 1994). FACS data was obtained on a Coulter Epics Elite ESP by observing a minimum of 5,000 events and analyzed using EXPO (version 2) for Windows.
Stained cells were analyzed with a FACS Calibur™ using Cell Quest™ software (Becton-Dickinson PharMingen). […] Mouse IgG2a or IgG2b was used as an isotype control.
Cells (1 3 10 6) were incubated with 5 μg/ml of the appropriate antibody or an isotype-matched negative control in PBS containing 1% HSA for 30 min at 4° C. After three washes with PBS/1% HSA, cells were incubated an additional 30 min at 4° C. with FTTC-coupled goat anti-mouse antibody (1:100 dilution; Calbiochem, San Diego, CA). After three subsequent washes, cells were analyzed on an Epics Elite ESP (Beckman Coulter, Hialeah, FL) by observing a minimum of 20,000 events and analyzed using EXPO (version 2) for Windows.

B1: mAb806: murine monoclonal antibody recognizing de2-7 EGFR and amplified EGFR; VH SEQ ID NO:2, VL SEQ ID NO:4 (antibody, listed as Mus musculus, V domains shown)
VH: MRVLILLWLFTAFPGVLSDVQLQESGPSLVKPSQSLSLTCTVTGYSITSDFAWNWIRQFPGNKLEWMGYISYSGNTRYNPSLKSRISITRDTSKNQFFLQLNSVTIEDTATYYCVTAGRGFPYWGQGTLVTVSA
VL: MVSTAQFLAFLLLWFPGARCDILMTQSPSSMSVSLGDTVSITCHSSQDINSNIGWLQQRPGKSFKGLIYHGTNLDDEVPSRFSGSGSGADYSLTISSLESEDFADYYCVQYAQFPWTFGGGTKLEIKR
immunoprecipitation of EGFR [1]: immunoprecipitate a small proportion of the EGFR
effect on survival [2]: slightly extended
median survival [2]: 23 days
positive cases ([3]; 46 glioblastomas): 58.7%
positive cases/cases ([3]; 46 glioblastomas): 27/46
immunohistochemical staining ([3]; case with EGFR Amp. N, A2): ++++ (++++=>75%)
immunohistochemical staining ([3]; cases with EGFR Amp. A, WT): ++++ (++++=>75%)
immunohistochemical staining ([3]; cases with EGFR Amp. N, mutation nd): neg.
immunohistochemical staining ([3]; cases with EGFR Amp. nd, mutation nd): neg.
cases with homogeneous immunoreactivity ([3]; mAb806: in more than 50% of the tumor): 22
effect on EGF-induced proliferation [4]: no effect
reactivity [5]: no significant reactivity
effect on xenograft growth (U87MG xenografts [6]): no effect
reactivity with Peptide C [7]: did not show detectable specific reactivity
binding of iodinated antibody (parental U87MG cells): Neither ^125I-radiolabeled mAb806 or the DH8.3 antibody bound; also recorded: did not bind
effect on xenograft growth (U87MG xenografts [8]): no effect
immunohistochemical staining (xenograft U87MG (native)): undetectable
immunohistochemical staining (xenograft A431): pos. (predominantly
FACS staining [9]: clearly stained both cell lines but at a lower level
FACS staining (U87MG cells): binding levels similar to the control antibody; also recorded: not with U87MG cells
